According to US20030082736A1 (IMMUNEX, published 2003):

Target: T1, TNF (125I-TNF) (human, UniProt P01375 77-233, limits assumed, radioiodinated (125I) where used as labeled ligand)
T1 construct: It may be the same FLAG-TNFα as m1; also called 125I-labeled TNF
Assay: TNF binding assay on product of transfected COS-7 cells

T1 sequence (P01375 77-233 limits assumed): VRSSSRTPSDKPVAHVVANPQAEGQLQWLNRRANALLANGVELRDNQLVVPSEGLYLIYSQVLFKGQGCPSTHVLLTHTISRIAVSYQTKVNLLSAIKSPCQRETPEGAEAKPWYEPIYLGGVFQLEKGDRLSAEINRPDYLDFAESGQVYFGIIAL

- binding result: no binding
B1: soluble huTNF-RΔ142 (receptor)
chain: LPAQVAFTPYAPEPGSTCRLREYYDQTAQMCCSKCSPGQHAKVFCTKTSDTVCDSCEDSTYTQLWNWVPECLSCGSRCSSDQVETQACTREQNRICTCRPGWYCALSKQEGCRLCAPLRKCRPGFGVARPGTETSDVVCKPC
notes: Transfected into COS-7 cells; also called huTNF-R?142; product of psolTNFRΔ142/CAVNOT
